For test [1], the target named is human eIF4E (human, UniProt P06730 1-217).
Test [2] deals with T1, LeishIF4E-1 (Leishmania cap-binding isoform 1) (Leishmania major, UniProt E9ADE1 1-214).
T1 sequence (looked up): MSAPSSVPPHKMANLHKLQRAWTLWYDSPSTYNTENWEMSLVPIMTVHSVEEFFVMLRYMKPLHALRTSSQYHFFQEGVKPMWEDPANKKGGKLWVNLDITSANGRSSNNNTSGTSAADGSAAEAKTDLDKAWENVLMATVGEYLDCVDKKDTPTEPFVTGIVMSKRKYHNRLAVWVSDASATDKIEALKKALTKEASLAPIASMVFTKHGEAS
In words: ITC.

Consider three molecules from article PMC5909430 (Nucleic Acids Research, 2018).

human eIF4E, sequence (P06730 whole entry, canonical isoform): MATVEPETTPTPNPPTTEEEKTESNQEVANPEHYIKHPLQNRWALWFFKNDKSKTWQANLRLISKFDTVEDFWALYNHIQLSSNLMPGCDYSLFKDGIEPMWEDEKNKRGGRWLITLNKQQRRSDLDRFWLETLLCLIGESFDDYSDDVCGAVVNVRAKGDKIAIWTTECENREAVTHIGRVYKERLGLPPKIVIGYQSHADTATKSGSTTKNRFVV

B1: Leish4E-IP1 (construct not stated; data not shown) (domain or fragment, Leishmania major, UniProt E9AFM3 1-52, looked up)
chain: MPSVRTMYTREELLRIATLASAMDLGPEVLRKFDVIEVAEPVPTPKRRDAES
Regarding B1, the “fold lower binding affinity than for LeishIF4E-1” value in test [1] turned out to be 10 fold.

B2: Leish4E-IP1_(1–52) (domain or fragment, Leishmania major, UniProt E9AFM3 1-52, looked up)
chain: B1 chain
In the case of B2, in test [2], binding was put at a Kd of 9.7 nM and the dH is -15.5 ± 0.282 kcal/mol.

B3: Leish4E-IP1_(1–100) (domain or fragment, Leishmania major, UniProt E9AFM3 1-100, looked up)
chain: MPSVRTMYTREELLRIATLASAMDLGPEVLRKFDVIEVAEPVPTPKRRDAESNFKGSVFTDNFSTSTTITNLGPNGGGNSGGKGGHNSGMNGGGSSSNHP
As to B3, in test [2], the Kd (usually the concentration at which binding is half-saturated) was determined as 87 nM and the dH is -3.11 ± 0.0804 kcal/mol.
